Measured values published in US20220064691A1 (ABERA BIOSCIENCE, published 2022).

B1: GFPnb-SpyCatcher (VHH)
VHH: MVQLVESGGALVQPGGSLRLSCAASGFPVNRYSMRWYRQAPGKEREWVAGMSSAGDRSSYEDSVKGRFTISRDDARNTVYLQMNSLKPEDTAVYYCNVNVGFEYWGQGTQVTVSS
notes: also called GFPnb-SpC; GFPNanobody-SpyCatcher
B2: GFPnb-SpC EQ (VHH)
VHH: B1 VHH

How the values were obtained:
ssTorA(3×)-MBP-SpT [1] = assay: overview table of covalent ligation to inclusion bodies
ssTorA(3×)-MBP-SpT [2] = assay: covalent coupling to inclusion bodies in PBS, 25 °C 2 h; SDS-PAGE and Coomassie staining
Description: The mixtures were incubated at 25° C. for 2h. The inclusion bodies were collected through centrifugation and resuspended in PBS.

Row | Binder | binding result (ssTorA(3×)-MBP-SpT [1]) | binding result (ssTorA(3×)-MBP-SpT [2])
1 | B1 | binds | –
2 | B2 | – | no binding (tested: 3.2 µM)
